The values that follow come from patent US20140329995A1.

Assay [1] has as its target Gammanorm 165 mg/ml (Octapharma), human polyclonal IgG (human). Nature of the assay: column breakthrough, ligand on agarose base matrix B, ligand density 11.3 mg/ml, residence time 6.0 min, 1 mg/ml IgG.
For assay [2] the target is unchanged. The assay is described as follows: column breakthrough, ligand on agarose base matrix A, ligand density […], residence time 10.0 min, 1 mg/ml IgG.
Assay [3] has the same target. The assay is described as follows: column breakthrough, ligand on agarose base matrix A, ligand density […], residence time 6.0 min, 1 mg/ml IgG.
For assay [4] the target is unchanged. Nature of the assay: column breakthrough, ligand on agarose base matrix B, ligand density 11.3 mg/ml, residence time 2.4 min, 1 mg/ml IgG.
Assay [5] has the same target. Nature of the assay: column breakthrough, ligand on agarose base matrix A, ligand density […], residence time 2.4 min, 1 mg/ml IgG.
The target is the same in assay [6]. The assay is described as follows: column breakthrough, ligand on agarose base matrix A, ligand density 14.5 mg/ml, residence time 6.0 min, 1 mg/ml IgG.
For assay [7] the target is unchanged. Nature of the assay: column breakthrough, ligand on agarose base matrix A, ligand density 14.5 mg/ml, residence time 2.4 min, 1 mg/ml IgG.
Assay [8] shares this target. Nature of the assay: column breakthrough, ligand on agarose base matrix A, ligand density 14.5 mg/ml, residence time 10.0 min, 1 mg/ml IgG.

For “Mutant Z(N23T)6: ligand hexamer containing six copies of protein Z, each containing the N23T substitution (designed binder)”, the Qb10 (dynamic binding capacity at 10% breakthrough) amounted to 68 mg/ml resin in assay [1]; 64.5 mg/ml resin in assay [2]; 53.4 mg/ml resin in assay [3]; 47 mg/ml resin in assay [4]; 35.1 mg/ml resin in assay [5]; 61.8 mg/ml resin in assay [6]. Further, the Qb10 (dynamic binding capacity at 10% breakthrough) in assay [7] amounted to 31.2 mg/ml resin; in assay [8], 76.7 mg/ml resin. Also, the Qb80 (dynamic binding capacity at 80% breakthrough) in assay [1] is 82.8 mg/ml resin; in assay [2], 74.5 mg/ml resin; in assay [3] it was 68.7 mg/ml resin; in assay [4], 76.9 mg/ml resin; in assay [5], 62.7 mg/ml resin; in assay [6], 103 mg/ml resin. Further, the figures for the Qb80 (dynamic binding capacity at 80% breakthrough) in assay [7] and in assay [8] were 80.6 mg/ml resin and 103 mg/ml resin, respectively.
